The values that follow come from patent publication US7867500B2, “Cofactor that modulates steroid receptor activities” (The United States of America as represented by the …, priority 2004, dated 2011).

What all share (format): cell-based
One data set has as its target T1, androgen receptor (AR) (Homo sapiens, UniProt P10275).
T1 construct: the whole cell actions of TIF2 with full length AR and TRβ; expressed in transfected cells; host or cells: CV-1
T1 sequence (P10275 1-920): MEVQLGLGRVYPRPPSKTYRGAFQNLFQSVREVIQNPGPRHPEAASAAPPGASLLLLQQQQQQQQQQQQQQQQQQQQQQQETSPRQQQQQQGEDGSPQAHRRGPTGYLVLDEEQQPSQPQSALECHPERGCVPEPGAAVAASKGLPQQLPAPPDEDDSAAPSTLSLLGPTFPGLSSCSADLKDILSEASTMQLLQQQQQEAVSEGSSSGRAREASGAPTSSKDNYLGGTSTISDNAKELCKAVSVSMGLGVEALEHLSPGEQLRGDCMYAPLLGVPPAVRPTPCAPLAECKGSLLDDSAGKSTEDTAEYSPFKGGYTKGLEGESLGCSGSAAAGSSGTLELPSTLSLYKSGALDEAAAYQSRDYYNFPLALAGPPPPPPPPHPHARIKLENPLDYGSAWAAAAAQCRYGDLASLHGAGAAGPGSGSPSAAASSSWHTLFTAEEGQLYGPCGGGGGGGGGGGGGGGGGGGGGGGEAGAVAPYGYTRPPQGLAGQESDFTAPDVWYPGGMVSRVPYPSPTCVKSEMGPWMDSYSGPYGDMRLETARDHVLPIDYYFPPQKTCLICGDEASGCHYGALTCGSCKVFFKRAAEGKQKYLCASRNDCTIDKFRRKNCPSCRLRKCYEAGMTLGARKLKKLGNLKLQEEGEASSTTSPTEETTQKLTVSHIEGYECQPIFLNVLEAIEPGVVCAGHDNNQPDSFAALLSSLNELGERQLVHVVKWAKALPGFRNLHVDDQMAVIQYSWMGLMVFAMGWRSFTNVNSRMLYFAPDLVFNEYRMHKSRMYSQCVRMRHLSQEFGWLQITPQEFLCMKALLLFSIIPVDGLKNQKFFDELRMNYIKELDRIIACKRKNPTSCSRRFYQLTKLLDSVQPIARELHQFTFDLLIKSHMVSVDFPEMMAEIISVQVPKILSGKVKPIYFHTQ
Description: AR-mediated induction of GREtkLUC reporter in CV-1 cells. To be noted: R1881. The protocol: FIG. 6D1-2 illustrate the effects of STAMP and TIF2 on androgen receptor (AR, FIG. 6D1) and thyroid receptor β (TRβ, FIG. 6D2) expression. […] Luciferase activities, normalized to the internal Renilla control values, and the fold changes in EC50 and fold induction were determined and plotted as in FIG. 4B.

Another data set deals with T2, SRC-1 (1139C) (Homo sapiens, UniProt Q15788).
T2 construct: expressed in transfected cells; host or cells: CV-1
T2 sequence (Q15788 1139-1441 limits assumed): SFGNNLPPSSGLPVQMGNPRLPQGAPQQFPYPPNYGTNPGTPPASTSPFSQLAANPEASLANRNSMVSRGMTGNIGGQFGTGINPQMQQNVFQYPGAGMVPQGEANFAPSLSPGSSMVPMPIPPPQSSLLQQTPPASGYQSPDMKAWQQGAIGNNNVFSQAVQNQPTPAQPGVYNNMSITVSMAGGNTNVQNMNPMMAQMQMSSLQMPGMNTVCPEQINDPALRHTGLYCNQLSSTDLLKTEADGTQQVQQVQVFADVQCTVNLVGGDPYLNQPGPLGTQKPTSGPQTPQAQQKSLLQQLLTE
T2 sequence (Q6EMB2 627-838 partner limits assumed): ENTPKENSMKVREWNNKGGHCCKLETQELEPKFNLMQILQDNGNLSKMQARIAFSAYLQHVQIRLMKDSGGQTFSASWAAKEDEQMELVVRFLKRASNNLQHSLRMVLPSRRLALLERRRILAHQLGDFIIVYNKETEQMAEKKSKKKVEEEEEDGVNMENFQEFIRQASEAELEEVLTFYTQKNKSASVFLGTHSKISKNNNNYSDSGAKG
The experiment in a line: Mammalian two-hybrid assay in CV-1 cells with SRC-1 C-terminal fragment. The source says: FIG. 2A-2C illustrate the isolation and characterization of the partial clone of the protein that binds to TIF2.4. […] Five clones were obtained but only two (clones I and V) contained a protein that was needed for colony growth in the presence of the pSos/TIF2.4 fusion protein. After initial screening, only clone I (also named 6-6CL1) was selected for further investigation. FIG. 2B and FIG. 2C illustrate the selectivity of 6-6CL1 interactions with TIF2.4 in mammalian two-hybrid assays. Triplicate samples of CV-1 cells in 24-well plates were transiently transfected with the indicated GAL-DBD and VP16-AD plasmids along with the GAL4-regulated reporter, pFRLuc. The relative luciferase activity, normalized for the activity of the internal Renilla control, was determined and plotted as the average±S.D. The much lower activity of GAL/TIF2.4m123 was previously shown not to be due to unequal levels of protein expression (He et al., 2002). Similar results were obtained in three additional experiments. […] Triplicate samples of CV-1 cells in 24-well plates were analyzed as in (B&C) after being transiently transfected with GAL±6-6CL1 constructs and pFRLuc reporter along with VP16 chimeras of SRC-1 (FIG. 2D) or TIF2 (FIG. 2E) segments. Similar results for SRC-1 were obtained in two additional experiments (ND=not determined). […]

A further data set concerns the target T3, PCAF (Homo sapiens, UniProt Q92831).
T3 construct: expressed in transfected cells; host or cells: CV-1 (the same two-hybrid assay)
Description: Mammalian two-hybrid assay with PCAF. To be noted: data not shown. How it is done: These assays were conducted as described (He et al., 2002). In particular, the recommended procedure for the Mammalian Matchmaker two-hybrid assay kit (Clontech) was modified slightly by changing from a chloramphenicol acetyltransferase reporter to a Luciferase Reporter pFRLuc (Stratagene), which is under the control of five repeats of the upstream activating sequence for the binding of GAL4.

T3 sequence (Q92831 whole entry, species assumed): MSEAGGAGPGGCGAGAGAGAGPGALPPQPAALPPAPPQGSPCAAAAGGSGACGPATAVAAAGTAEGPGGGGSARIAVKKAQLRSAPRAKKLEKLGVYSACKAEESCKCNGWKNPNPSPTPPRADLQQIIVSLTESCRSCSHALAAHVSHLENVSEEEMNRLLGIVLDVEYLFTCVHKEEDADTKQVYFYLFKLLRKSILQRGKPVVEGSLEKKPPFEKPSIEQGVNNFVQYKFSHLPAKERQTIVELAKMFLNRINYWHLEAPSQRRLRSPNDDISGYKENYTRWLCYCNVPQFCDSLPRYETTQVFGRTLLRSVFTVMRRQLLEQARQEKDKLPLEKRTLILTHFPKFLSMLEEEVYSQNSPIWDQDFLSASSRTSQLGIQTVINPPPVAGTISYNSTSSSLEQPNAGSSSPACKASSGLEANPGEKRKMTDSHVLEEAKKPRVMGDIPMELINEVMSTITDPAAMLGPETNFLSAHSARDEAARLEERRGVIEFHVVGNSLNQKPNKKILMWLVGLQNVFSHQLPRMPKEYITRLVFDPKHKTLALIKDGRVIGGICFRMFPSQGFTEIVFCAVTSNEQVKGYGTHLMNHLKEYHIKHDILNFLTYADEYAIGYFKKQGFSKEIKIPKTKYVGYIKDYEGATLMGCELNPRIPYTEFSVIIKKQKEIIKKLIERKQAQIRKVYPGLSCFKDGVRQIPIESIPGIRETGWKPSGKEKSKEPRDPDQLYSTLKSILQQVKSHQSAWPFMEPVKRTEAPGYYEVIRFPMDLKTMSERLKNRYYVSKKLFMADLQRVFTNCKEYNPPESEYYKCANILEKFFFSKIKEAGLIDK

B1: STAMP: SRC-1 and TIF2 Associated Modulatory Protein, 1277 amino acid human polypeptide, expressed from transfected plasmid (protein)
chain: MARDLEETASSSEDEEVISQEDHPCIMWTGGCRRIPVLVFHADAILTKDNNIRVIGERYHLSYKIVRTDSRLVRSILTAHGFHEVHPSSTDYNLMWTGSHLKPFLLRTLSEAQKVNHFPRSYELTRKDRLYKNIIRMQHTHGFKVFHILPQTFLLPAEYAEFCNSYSKDRGPWIVKPVASSRGRGVYLINNPNQISLEENILVSRYINNPLLIDDFKFDVRLYVLVTSYDPLVIYLYEEGLARFATVRYDQGAKNIRNQFMHLTNYSVNKKSGDYVSCDDPEVEDYGNKWSMSAMLRYLKQEGRDTTALMAHVEDLIIKTIISAELAIATACKTFVPHRSSCFELYGFDVLIDSTLKPWLLEVNLSPSLACDAPLDLKIKASMISDMFTVVGFVCQDPAQRASTRPIYPTFESSRRNPFQKPQRCRPLSASDAEMKNLVGSAREKGPGKLGGSVLGLSMEEIKVLRRVKEENDRRGGFIRIFPTSETWEIYGSYLEHKTSMNYMLATRLFQDRMTADGAPELKIESLNSKAKLHAALYERKLLSLEVRKRRRRSSRLRAMRPKYPVITQPAEMNVKTETESEEEEEVALDNEDEEQEASQEESAGFLRENQAKYTPSLTALVENTPKENSMKVREWNNKGGHCCKLETQELEPKFNLMQILQDNGNLSKMQARIAFSAYLQHVQIRLMKDSGGQTFSASWAAKEDEQMELVVRFLKRASNNLQHSLRMVLPSRRLALLERRRILAHQLGDFIIVYNKETEQMAEKKSKKKVEEEEEDGVNMENFQEFIRQASEAELEEVLTFYTQKNKSASVFLGTHSKISKNNNNYSDSGAKGDHPETIMEEVKIKPPKQQQTTEIHSDKLSRFTTSAEKEAKLVYSNSSSGPTATLQKIPNTHLSSVTTSDLSPGPCHHSSLSQIPSAIPSMPHQPTILLNTVSASASPCLHPGAQNIPSPTGLPRCRSGSHTIGPFSSFQSAAHIYSQKLSRPSSAKAGSCYLNKHHSGIAKTQKEGEDASLYSKRYNQSMVTAELQRLAEKQAARQYSPSSHINLLTQQVTNLNLATGIINRSSASAPPTLRPIISPSGPTWSTQSDPQAPENHSSSPGSRSLQTGGFAWEGEVENNVYSQATGVVPQHKYHPTAGSYQLQFALQQLEQQKLQSRQLLDQSRARHQAIFGSQTLPNSNLWTMNNGAGCRISSATASGQKPTTLPQKVVPPPSSCASLVPKPPPNHEQVLRRATSQKASKGSSAEGQLNGLQSSLNPAASVPITSSTDPAHTKI
As to B1, the “left-shift of the dose-response curve of ARs” value with androgen receptor (AR) (STAMP added by itself) is reported as “not when added by itself”; in the data set with androgen receptor (AR) (in the presence of TIF2), “augments the left-shift”. Moreover, the “fold induction by AR” value is given as “no additional effect” with androgen receptor (AR) (STAMP with TIF2) and “increases the fold induction” in the data set with androgen receptor (AR) (STAMP without TIF2).

B2: 6-6CL1: STAMP fragment amino acids 623-834, coactivator interaction domain (CID) (protein)
chain: ENTPKENSMKVREWNNKGGHCCKLETQELEPKFNLMQILQDNGNLSKMQARIAFSAYLQHVQIRLMKDSGGQTFSASWAAKEDEQMELVVRFLKRASNNLQHSLRMVLPSRRLALLERRRILAHQLGDFIIVYNKETEQMAEKKSKKKVEEEEEDGVNMENFQEFIRQASEAELEEVLTFYTQKNKSASVFLGTHSKISKNNNNYSDSGAKG
B2: the “interaction with C-terminal portion of SRC-1 (1139C)” value with SRC-1 (1139C) is reported as “strongly interacted”. In addition, the “association with PCAF” value in the data set with PCAF is given as “negligible association”.
